Assay results taken from patent US20190062438A1 (CSL, published 2019).
Positions count from the first letter of the chain named.

Columns and labels:
Test in all cases: SPR, kinetics, Fab over captured mutant
shCD131 D369A = biological target: T1, shCD131 D369A (human, UniProt P32927 17-438)
T1 construct: C-terminal 6xHis
T1 sequence: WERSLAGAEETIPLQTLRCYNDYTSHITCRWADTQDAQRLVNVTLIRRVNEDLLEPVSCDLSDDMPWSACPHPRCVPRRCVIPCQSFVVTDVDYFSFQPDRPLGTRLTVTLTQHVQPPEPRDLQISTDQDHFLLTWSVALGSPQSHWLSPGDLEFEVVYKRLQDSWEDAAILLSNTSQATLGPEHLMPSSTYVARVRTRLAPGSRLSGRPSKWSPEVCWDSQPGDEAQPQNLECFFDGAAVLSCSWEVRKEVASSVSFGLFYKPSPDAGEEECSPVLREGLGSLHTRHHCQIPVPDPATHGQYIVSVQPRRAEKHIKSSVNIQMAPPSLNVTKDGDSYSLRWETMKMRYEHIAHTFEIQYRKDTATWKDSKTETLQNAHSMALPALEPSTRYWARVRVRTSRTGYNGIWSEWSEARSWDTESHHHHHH
Protocol: (§1) As shβc is a dimer, kinetics assays were performed with shβc captured on the sensor surface, and purified Fab injected as the analyte. Avidity effects were avoided by the use of Fab rather than whole IgG.
(§2) shCD131 was captured on spots 1 and 5 of each flow cell for 2 minutes at a concentration of 0.4 μg/ml. […] For some analysis purified Fab was injected over each flow cell for 3 minutes and dissociation was monitored for a further 10 minutes. Regeneration of the surface was performed after each cycle with a 40 second injection of 25 mM glycine, pH 2.0. The analysis was performed with Fabs at several concentrations between 100 and 0.31 nM, with each concentration analyzed twice and in random order. The analysis was performed at a flow rate of 30 μl/min in HBS-EP buffer (10 mM Hepes, 150 mM NaCl, 3 mM EDTA, 0.005% Tween 20, pH 7.4) at 37° C. Responses from spots 2 and 4 of each flow cell, (in which shβc was not captured, but otherwise treated identically), were subtracted from those of spots 1 and 5 respectively to produce reference subtracted data. Reference subtracted responses from a blank injection comprising buffer alone were subtracted from the resultant sensorgrams to produce double referenced data suitable for kinetic analysis. Double-referenced sensorgrams were fitted using non-linear regression to a model describing 1:1 kinetics, including a term for mass transport limitation. The Rₘₐₓ value was fitted locally to account for slight deviations in the level of sCD131 captured, with association rate (kₐ), dissociation rate (kd) and equilibrium dissociation constant (KD) fitted globally.
(§3) Mapping of the shCD131 epitope was performed by measurement of the affinity of Fabs for various alanine point mutants of shCD131 essentially as described above, with the following exceptions. Each shCD131 mutant was captured for 120 seconds at concentrations between 1 and 5 μg/ml. For kinetic analysis, purified recombinant Fabs were injected for 2 minutes, and dissociation was monitored for a further 2 minutes. […] Fab concentrations ranged from 16 μM to 3.9 nM in two-fold dilutions.

shCD131 D107A = biological target: T2, shCD131 D107A (human, UniProt P32927 17-438)
T2 construct: C-terminal 6xHis
T2 sequence: T1 sequence with D91A, A353D
Protocol: as §1, §2, §3

shCD131 V105A = biological target: T3, shCD131 V105A (human, UniProt P32927 17-438)
T3 construct: C-terminal 6xHis
T3 sequence: T1 sequence with V89A, A353D
Protocol: as §1, §2, §3

shCD131 R364A = biological target: T4, shCD131 R364A (human, UniProt P32927 17-438)
T4 construct: C-terminal 6xHis
T4 sequence: T1 sequence with R348A, A353D
Protocol: as §1, §2, §3

Kd (shCD131 D369A): 28 nM
Kd (shCD131 D107A): 191 nM
Kd (shCD131 V105A): 78 nM
Kd (shCD131 R364A): 119 nM
B1: 9A2 Fab (Fab, V domains shown)
VH: EVQLLESGGGLVQPGGSLRLSCAASGFTFSHYHMLWVRQAPGKGLEWVSSIRSSGGFTYYADSVKGRFTISRDNSKNTLYLQMNSLRAEDTAVYYCARFYDSFFDIWGQGTMVTVSS
VL: DIQMTQSPSSVSASVGDRVTITCRASQGISSWLAWYQQKPGKAPKLLIYAASSLQSGVPSRFSGSGSGTDFTLTISSLQPEDFATYYCQQANSFPITFGQGTRLEIKR
notes: also called recombinant Fab of 9A2
